{
  "source": "patent US20260240998A1",
  "about": "(JICHI MEDICAL UNIVERSITY, published 2026)",
  "target": "T1, B-cell maturation antigen (BCMA) (human, UniProt Q02223 1-184)",
  "T1 sequence (looked up)": "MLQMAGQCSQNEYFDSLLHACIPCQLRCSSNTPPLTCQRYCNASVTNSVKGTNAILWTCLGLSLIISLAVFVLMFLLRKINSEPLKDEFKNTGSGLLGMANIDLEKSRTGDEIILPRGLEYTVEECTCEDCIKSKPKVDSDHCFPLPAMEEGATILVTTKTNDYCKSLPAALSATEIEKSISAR",
  "test": "cell-based or functional assay",
  "data": [
    {"binder": "BCMA-CAR (L20H), LH construct derived from anti-BCMA antibody 1 with a 20 amino acid linker (other) DIVLTQSPASLAVSLGQRATISCRASKSVSTSGYSYMHWYQQKPGQPPRLLIYLASNLESGVPARFSGSGSGTDFTLNIHPVEEEDAATYYCQHSRELPFTFGSGTKLEIKGGGGSGGGGSGGGGSGGGGSEVQLQQSGPELVKPGASVKMSCKASGYTFTNYIIHWVKQKPGQGLEWIGYIIPYNDGSKYNEKFKGKATLTSDKSSSTAYMELSSLTSEDSAVYYCARLTFSYDSYAMDYWGQGTSVTVSSATGAAAIEVMYPPPYLDNEKSNGTIIHVKGKHLCPSPLFPGPSKPFWVLVVVGGVLACYSLLVTVAFIIFWVRSKRSRLLHSDYMNMTPRRPGPTRKHYQPYAPPRDFAAYRSRVKFSRSADAPAYQQGQNQLYNELNLGRREEYDVLDKRRGRDPEMGGKPRRKNPQEGLYNELQKDKMAEAYSEIGMKGERRRGKGHDGLYQGLSTATKDTYDALHMQALPPR", "values": [
      {"measurement": "luminescence intensity ratio of the U266 co-culture group to the control group (transduced cells only)", "result": 62.8, "unit": "times"}
    ]}
  ]
}
